Experimental data: patent publication US20040253623

Experiments:
[1] = test system: F2-Arg finger 3 Asp2Ala D2A in finger 3 (helix position 2) (Artificial Sequence); details: phage ELISA; PBS, 50 uM ZnCl2, 20 C
[2] = test system: Zif268 finger 3 Asp2Ala D2A in finger 3 (helix position 2); details: phage ELISA; PBS, 50 uM ZnCl2, 20 C

Sequence	binding signal (fold lower affinity than parent F2-Arg) [1]	binding signal (fold lower affinity than wild type) [2]
GCGGTGGCG (double strand) [F2-Arg consensus site]	4	–
GCGTGGGCG (double strand) [Zif268 consensus site]	–	4
